In the PETadex activity labels (doi:10.1128/aem.02773-17):

B1: unnamed (protein)
chain: MNVLTKCKLALGIIAIFFSLPSFAVPCSDCSNGFERGQVPRVDQLESSRGPYSVKTINVSRLARGFGGGTIHYSTESGGQQGIIAVVPGYVSLEGSIKWWGPRLASWGFTVITIDTNTIYDQPDSRASQLSAAIDYVIDKGNDRSSPIYGLVDPNRVGVIGWSMGGGGSLKLATDRKIDAVIPQAPWYLGLSRFSSITSPTMIIACQADVVAPVSVHASRFYNQIPGTTPKAYFEIALGSHFCANTGYPSEDILGRNGVAWMKRFIDKDERYTQFLCGQNFDSSLRVSEYRDNCSYY
B2: unnamed (protein)
chain: MPITARNTLASLLLASSALLLSGTAFAANPPGGDPDPGCQTDCNYQRGPDPTDAYLEAASGPYTVSTIRVSSLVPGFGGGTIHYPTNAGGGKMAGIVVIPGYLSFESSIEWWGPRLASHGFVVMTIDTNTIYDQPSQRRDQIEAALQYLVNQSNSSSSPISGMVDSSRLAAVGWSMGGGGTLQLAADGGIKAAIALAPWNSSINDFNRIQVPTLIFACQLDAIAPVALHASPFYNRIPNTTPKAFFEMTGGDHWCANGGNIYSALLGKYGVSWMKLHLDQDTRYAPFLCGPNHAAQTLISEYRGNCPY

How the values were obtained:
pNPB = assay: Proxy for plastic degradation [Relative activity]
PET = assay: Proxy for plastic degradation [Released monomer concentration (HPLC/LC-MS) (terephthalic acid)]; conditions: pH 8

Protein	Proxy for plastic degradation (pNPB; pH 3) [%]	Proxy for plastic degradation (pNPB; pH 4) [%]	Proxy for plastic degradation (pNPB; pH 5) [%]	Proxy for plastic degradation (pNPB; pH 6) [%]	Proxy for plastic degradation (pNPB; pH 7, 17 °C) [%]	Proxy for plastic degradation (pNPB; pH 7, 22 °C) [%]	Proxy for plastic degradation (pNPB; pH 7, 28 °C) [%]	Proxy for plastic degradation (pNPB; pH 7, 37 °C) [%]	Proxy for plastic degradation (pNPB; pH 7, 42 °C) [%]	Proxy for plastic degradation (pNPB; pH 7, 55 °C) [%]	Proxy for plastic degradation (pNPB; pH 7, 60 °C) [%]	Proxy for plastic degradation (pNPB; pH 7, 70 °C) [%]	Proxy for plastic degradation (pNPB; pH 7, 80 °C) [%]	Proxy for plastic degradation (pNPB; pH 7, 90 °C) [%]	Proxy for plastic degradation (pNPB; pH 8) [%]	Proxy for plastic degradation (pNPB; pH 9.2) [%]	Proxy for plastic degradation (pNPB; pH 10.2) [%]	Proxy for plastic degradation (PET) [µM]
B1	0	0	0	11	60	60	62	72	82	100	81	81	55	35	100	76	48	–
B2	0	0	0	4	63	70	71	77	76	82	100	100	81	82	100	99	90	900
